Experiments:
EGF (Homo sapiens) = EGF (Homo sapiens) (UniProt P01133); experiment: functional ELISA; conditions: cited from earlier work
[1] = molecular target: T1, recombinant human EGFR/ErbB1 Fc Chimera (human, UniProt P00533 25-645); experiment: surface capture, Sypro Ruby fluorescence
[2] = molecular target: T1, recombinant human EGFR/ErbB1 Fc Chimera; experiment: nanogap break-junction I-V measurement

Chain of EGF (Homo sapiens) (P01133 971-1023): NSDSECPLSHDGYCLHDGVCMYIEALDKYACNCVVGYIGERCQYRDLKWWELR

Molecule: EGFR/ErbB1 Fc chimera (from UniProt P00533)
- Kd (EGF (Homo sapiens)): < 8 nM

B1: extended anti-EGFR RNA aptamer hybridized to surface-anchored capture ssDNA (mixed)
RNA: GGCGCUCCGACCUUAGUCUCUGUGCCGCUAUAAUGCACGGAUUUAAUCGCCGUAGAAAAGCAUGUCAAAGCCGGAACCGUGUAGCACAGCAGAGAAUUAAAUGCCCGCCAUGACCAG
DNA: CTGGTCATGGCGGGCATTTAATTC
modifications: 5'-amine on DNA strand S3
- binding result [1]: binds

B2: extended mutant (scrambled) aptamer hybridized to surface-anchored capture ssDNA (mixed)
RNA: GGCGCUCCGACCUUAGUCUCUGUUCCCACAUCAUGCACAAGGACAAUUCUGUGCAUCCAAGGAGGAGUUCUCGGAACCGUGUAGCACAGCAGAGAAUUAAAUGCCCGCCAUGACCAG
DNA: CTGGTCATGGCGGGCATTTAATTC
modifications: 5'-amine on DNA strand S3
- binding result [2]: no binding
